The target of data set [1] is T1, P. furiosus (Pf) Mre11, wild type (P. furiosus, UniProt Q8U1N9 1-426). The data set can be described thus: SEC. Background: Size exclusion chromatography separates by hydrodynamic size, large species first.
The data set “FRET or BRET” concerns the molecule itself. The data set can be described thus: FRET or BRET. (In BRET a luciferase serves as donor, and the signal depends on an acceptor being close.)
For data set [2], the target named is T1, P. furiosus (Pf) Mre11, wild type. The data set can be described thus: FRET or BRET.

B1: P. furiosus Rad50 nucleotide-binding domain construct (aa 1-195 - GGAGGAGG linker - aa 709-882) (domain or fragment)
chain: MKLERVTVKNFRSHSDTVVEFKEGINLIIGQNGSGKSSLLDAILVGLYWPLRIKDIKKDEFTKVGARDTYIDLIFEKDGTKYRITRRFLKGYSSGEIHAMKRLVGNEWKHVTEPSSKAISAFMEKLIPYNIFLNAIYIRQGQIDAILESDEAREKVVREVLNLDKFETAYKKLSELKKTINNRIKEYRDILARTEGGAGGAGGRERVKKEIKDLEKAKDFTEELIEKVKKYKALAREAALSKIGELASEIFAEFTEGKYSEVVVRAEENKVRLFVVWEGKERPLTFLSGGERIALGLAFRLAMSLYLAGEISLLILDEPTPYLDEERRRKLITIMERYLKKIPQVILVSHDEELKDAADHVIRISLENGSSKVEVVS
On to B1, for which the binding result in data set [1] is “binds”.

B2: P. furiosus Rad50^NBD [change] [change]/[change], fluorophore-labeled (domain or fragment)
chain: MKLERVTVKNFRSHSDTVVEFKEGINLIIGQNGSGKSSLLDAILVGLYWPCRIKDIKKDEFTKVGARDTYIDLIFEKDGTKYRITRRFLKGYSSGEIHAMKRLVGNEWKHVTEPSSKAISAFMEKLIPYNIFLNAIYIRQGQIDAILESDEAREKVVREVLNLDKFETAYKKLSELKKTINNRIKEYRDILARTEGGAGGAGGRERVKKEIKDLEKAKDFTEELIEKVKKYKALAREAALSKIGELASEIFAEFTEGKYSEVVVRAEENKVRLFVVWEGKERPLTFLSGGERIALGLAFRLAMSLYLAGEISLLILDEPTPYLDEEREEKLITIMERYLKKIPQVILVSHDEELKDAADHVIRISLENGSSKVEVVS
On to B2, for which the binding result (in the data set “FRET or BRET”; in data set [2]) was “binds” each time.

B3: P. furiosus Rad50^NBD [change] [change], fluorophore-labeled (domain or fragment)
chain: MKLERVTVKNFRSHSDTVVEFKEGINLIIGQNGSGKSSLLDAILVGLYWPCRIKDIKKDEFTKVGARDTYIDLIFEKDGTKYRITRRFLKGYSSGEIHAMKRLVGNEWKHVTEPSSKAISAFMEKLIPYNIFLNAIYIRQGQIDAILESDEAREKVVREVLNLDKFETAYKELSELKKTINNRIKEYRDILARTEGGAGGAGGRERVKKEIKDLEKAKDFTEELIEKVKKYKALAREAALSKIGELASEIFAEFTEGKYSEVVVRAEENKVRLFVVWEGKERPLTFLSGGERIALGLAFRLAMSLYLAGEISLLILDEPTPYLDEERRRKLITIMERYLKKIPQVILVSHDEELKDAADHVIRISLENGSSKVEVVS
On to B3, for which the binding result (in the data set “FRET or BRET”; in data set [2]) was “binds” throughout.

B4: P. furiosus Rad50^NBD [change] [change], fluorophore-labeled (domain or fragment)
chain: MKLERVTVKNFRSHSDTVVEFKEGINLIIGQNGSGKSSLLDAILVGLYWPCRIKDIKKDEFTKVGARDTYIDLIFEKDGTKYRITRRFLKGYSSGEIHAMKRLVGNEWKHVTEPSSKAISAFMEKLIPYNIFLNAIYIRQGQIDAILESDEAREKVVREVLNLDKFETAYKKLSELKKTINNRIKEYRDILARTEGGAGGAGGRERVKKEIKDLEKAKDFTEELIEKVKKYKALAREAALSKIGELASEIFAEFTEGKYSEVVVRAEENKVRLFVVWEGKERPLTFLSGGERIALGLAFRLAMSLYLAGEISLLILDEPTPYLDEERRRKLITIMERYLKKIPQVILVSHDEELKDAADHVIEISLENGSSKVEVVS
On to B4, for which the binding result (in “FRET or BRET”; in data set [2]) was “binds” throughout.

B5: P. furiosus Rad50^NBD [change] [change]/[change], fluorophore-labeled (domain or fragment)
chain: MKLERVTVKNFRSHSDTVVEFKEGINLIIGQNGSGKSSLLDAILVGLYWPCRIKDIKKDEFTKVGARDTYIDLIFEKDGTKYRITRRFLKGYSSGEIHAMKRLVGNEWKHVTEPEEKAISAFMEKLIPYNIFLNAIYIRQGQIDAILESDEAREKVVREVLNLDKFETAYKKLSELKKTINNRIKEYRDILARTEGGAGGAGGRERVKKEIKDLEKAKDFTEELIEKVKKYKALAREAALSKIGELASEIFAEFTEGKYSEVVVRAEENKVRLFVVWEGKERPLTFLSGGERIALGLAFRLAMSLYLAGEISLLILDEPTPYLDEERRRKLITIMERYLKKIPQVILVSHDEELKDAADHVIRISLENGSSKVEVVS
For B5, the binding result (in the data set “FRET or BRET”; in data set [2]) was “binds” each time.

The record behind these values is publication PMC11965522 (Communications Biology, 2025).
